In US8013137B2, “Modified enteropeptidase protein” (National University Corporation Hokkaido University, priority 2006, dated 2011):
Numbering of substitutions follows the chain as printed. Names and notes keep the numbering of the source.

Legend:
[1] = substrate: Cc1cc(=O)oc2cc(NC(=O)[C@H](CCCNC(=N)N)NC(=O)[C@H](Cc3ccccc3)NC(=O)[C@@H]3CCCN3)ccc12; test: purified protein, by the assay type
Procedure: (§1) Expression of the recombinant Medaka EP catalytic domain in the Escherichia coli expression system was carried out as described previously (Ogiwara et al., Proc. Natl. Acad. Sci. USA, 102:8442-8447 (2005)). The Medaka EP catalytic domain was produced as a fusion protein with an extra amino acid sequence of 50 residues at its N-terminus; the vector-derived N-terminal stretch contained a His-tag and an S-protein sequence. Harvested cells were lysed and the insoluble materials were dissolved in a solubilization buffer containing 6 M urea, 50 mM Tris.HCl (pH 7.6), and 0.5 M NaCl. […] Eluted recombinant proteins were renatured by dialysis against 50 mM Tris.HCl (pH 8.0). The fusion protein was then incubated in 50 mM Tris.HCl (pH 8.0) containing 0.5 M NaCl with trypsin immobilized on Sepharose 4B at room temperature for 1 h. The immobilized trypsin was then removed by filtration.
(§2) Site-directed mutagenesis of Medaka EP-1 was carried out to produce various mutant proteases. […] The subsequent procedures for preparation of mutant proteases were the same as for the wild-type protein described above. The active recombinant protein concentrations were determined using the active site titrant p-nitrophenyl-p′-guanidinobenzoate HCl (Sigma) using the method described previously (Chase et al., Biochem. Biophys. Res. Commun., 29:508-514 (1976)).
(§3) Enzyme activity for various 4-methylcoumaryl-7-amide (MCA)-containing peptide substrates was determined by the method of Barrett (Barrett et al., J., Biochem. J., 187:909-912 (1980)). For kinetic studies, initial velocities, extrapolated from the plot of product versus time, were transformed into double-reciprocal plots (Lineweaver et al., J. Am. Chem. Soc., 56:658-663 (1934)). The maximum velocities (Vmax) and Km and kcat values were obtained from the intercepts of these plots.

[2] = substrate: Cc1cc(=O)oc2cc(NC(=O)[C@H](CCCNC(=N)N)NC(=O)[C@H](Cc3ccccc3)NC(=O)OCc3ccccc3)ccc12; test: purified protein, by the assay type
Procedure: as §1, §2, §3

[3] = substrate: Cc1cc(=O)oc2cc(NC(=O)[C@H](CCCNC(=N)N)NC(=O)[C@H](C)NC(=O)[C@H](CCC(=O)OCc3ccccc3)NC(=O)OC(C)(C)C)ccc12; test: purified protein, by the assay type
Procedure: as §1, §2, §3

[4] = substrate: Cc1cc(=O)oc2cc(NC(=O)[C@H](CCCNC(=N)N)NC(=O)[C@H](Cc3ccccc3)NC(=O)[C@@H]3CCCN3)ccc12; test: Kinetic parameters for MCA-containing peptide substrates, porcine EP; assay type: biochemical; conditions: other: Porcine
[5] = substrate: Cc1cc(=O)oc2cc(NC(=O)[C@H](CCCNC(=N)N)NC(=O)[C@H](Cc3ccccc3)NC(=O)OCc3ccccc3)ccc12; test: as above; assay type: biochemical; conditions: other: Porcine
[6] = substrate: Cc1cc(=O)oc2cc(NC(=O)[C@H](CCCNC(=N)N)NC(=O)[C@H](C)NC(=O)[C@H](CCC(=O)OCc3ccccc3)NC(=O)OC(C)(C)C)ccc12; test: as above; assay type: biochemical; conditions: other: Porcine
[7] = substrate: Cc1cc(=O)oc2cc(NC(=O)[C@H](CCCNC(=N)N)NC(=O)[C@H](Cc3ccccc3)NC(=O)[C@@H]3CCCN3)ccc12; test: Kinetic parameters for MCA-containing peptide substrates, EP-1(WT); assay type: biochemical, Japanese Medaka (Oryzias latipes); conditions: other: EP-1(WT)
[8] = substrate: Cc1cc(=O)oc2cc(NC(=O)[C@H](CCCNC(=N)N)NC(=O)[C@H](Cc3ccccc3)NC(=O)OCc3ccccc3)ccc12; test: as above; assay type: biochemical, Japanese Medaka (Oryzias latipes); conditions: other: EP-1(WT)
[9] = substrate: Cc1cc(=O)oc2cc(NC(=O)[C@H](CCCNC(=N)N)NC(=O)[C@H](C)NC(=O)[C@H](CCC(=O)OCc3ccccc3)NC(=O)OC(C)(C)C)ccc12; test: as above; assay type: biochemical, Japanese Medaka (Oryzias latipes); conditions: other: EP-1(WT)

B1: medaka EP-1 enteropeptidase serine protease domain (parent SEQ ID NO: 2), variant P193E (Oryzias latipes; P970E) (protein)
chain: CGQRQVYNSKENNGVPRVVGGVNAEKGAWPWMVSLHWRGRHGCGASLIGRDWLLTAAHCVYGKNTHLQYWSAVLGLHAQSSMNSQEVQIRQVDRIIINKNYNRRTKEADIAMMHLQQPVNFTEWVLPVCLASEDQHFPAGRRCFIAGWGRDAEGGSLPDILQEAEVPLVDQDECQRLLPEYTFTSSMLCAGYEEGGVDSCQGDSGGPLMCLEDARWTLIGVTSFGVGCGRPERPGAYARVSAFTSWIAETRRSSFSDLD
- Km ([1]; other: P193E): 1000 µM
- kcat ([1]; other: P193E): 0.45 s⁻¹
- kcat/Km ([1]; other: P193E): 450 M⁻¹ s⁻¹
- Km ([2]; other: P193E): 200 µM
- kcat ([2]; other: P193E): 0.0283 s⁻¹
- kcat/Km ([2]; other: P193E): 150 M⁻¹ s⁻¹
- Km ([3]; other: P193E): 200 µM
- kcat ([3]; other: P193E): 0.0383 s⁻¹
- kcat/Km ([3]; other: P193E): 200 M⁻¹ s⁻¹

B2: medaka EP-1 enteropeptidase serine protease domain (parent SEQ ID NO: 2), variant K63R (Oryzias latipes; K840R) (protein)
chain: B1 chain with K63R, E193P
- Km ([1]; other: K63R): 1100 µM
- kcat ([1]; other: K63R): 0.183 s⁻¹
- kcat/Km ([1]; other: K63R): 167 M⁻¹ s⁻¹
- Km ([2]; other: K63R): 100 µM
- kcat ([2]; other: K63R): 0.0233 s⁻¹
- kcat/Km ([2]; other: K63R): 233 M⁻¹ s⁻¹
- Km ([3]; other: K63R): 1200 µM
- kcat ([3]; other: K63R): 0.2 s⁻¹
- kcat/Km ([3]; other: K63R): 167 M⁻¹ s⁻¹

B3: porcine EP serine protease domain (Ile800 to His1034) (Sus scrofa) (protein)
chain: IVGGNDSREGAWPWVVALYYNGQLLCGASLVSRDWLVSAAHCVYGRNLEPSKWKAILGLHMTSNLTSPQIVTRLIDEIVINPHYNRRRKDSDIAMMHLEFKVNYTDYIQPICLPEENQVFPPGRICSIAGWGKVIYQGSPADILQEADVPLLSNEKCQQQMPEYNITENMMCAGYEEGGIDSCQGDSGGPLMCLENNRWLLAGVTSFGYQCALPNRPGVYARVPKFTEWIQSFLH
- Km [4]: 3900 µM
- kcat [4]: 5 s⁻¹
- kcat/Km [4]: 1280 M⁻¹ s⁻¹
- Km [5]: 200 µM
- kcat [5]: 0.917 s⁻¹
- kcat/Km [5]: 4670 M⁻¹ s⁻¹
- Km [6]: 300 µM
- kcat [6]: 1.83 s⁻¹
- kcat/Km [6]: 6170 M⁻¹ s⁻¹

B4: medaka EP-1 enteropeptidase serine protease domain (parent SEQ ID NO: 2), variant T105E (Oryzias latipes; T882E) (protein)
chain: VVGGVNAEKGAWPWMVSLHWRGRHGCGASLIGRDWLLTAAHCVYGKNTHLQYWSAVLGLHAQSSMNSQEVQIRQVDRIIINKNYNRREKEADIAMMHLQQPVNFTEWVLPVCLASEDQHFPAGRRCFIAGWGRDAEGGSLPDILQEAEVPLVDQDECQRLLPEYTFTSSMLCAGYPEGGVDSCQGDSGGPLMCLEDARWTLIGVTSFGVGCGRPERPGAYARVSAFTSWIAETRRSSFSDLD
- Km ([1]; other: T105E): 1300 µM
- kcat ([1]; other: T105E): 0.267 s⁻¹
- kcat/Km ([1]; other: T105E): 200 M⁻¹ s⁻¹
- Km ([2]; other: T105E): 100 µM
- kcat ([2]; other: T105E): 0.0333 s⁻¹
- kcat/Km ([2]; other: T105E): 333 M⁻¹ s⁻¹
- Km ([3]; other: T105E): 1300 µM
- kcat ([3]; other: T105E): 0.183 s⁻¹
- kcat/Km ([3]; other: T105E): 150 M⁻¹ s⁻¹

B5: medaka EP-1 enteropeptidase serine protease domain (parent SEQ ID NO: 2), variant E173A, SEQ ID NO: 4 (Oryzias latipes; E950A) (protein)
chain: B4 chain with E88T, E156A
- Km ([1]; other: E173A): 1000 µM
- kcat ([1]; other: E173A): 0.153 s⁻¹
- kcat/Km ([1]; other: E173A): 150 M⁻¹ s⁻¹
- Km ([2]; other: E173A): 400 µM
- kcat ([2]; other: E173A): 0.0383 s⁻¹
- kcat/Km ([2]; other: E173A): 100 M⁻¹ s⁻¹
- Km ([3]; other: E173A): 1000 µM
- kcat ([3]; other: E173A): 0.167 s⁻¹
- kcat/Km ([3]; other: E173A): 167 M⁻¹ s⁻¹

B6: medaka EP-1 enteropeptidase serine protease domain, wild type, SEQ ID NO: 2 (Oryzias latipes) (protein)
chain: B4 chain with E88T
- Km [7]: 10000 µM
- kcat [7]: 2.33 s⁻¹
- kcat/Km [7]: 233 M⁻¹ s⁻¹
- Km [8]: 100 µM
- kcat [8]: 0.0483 s⁻¹
- kcat/Km [8]: 483 M⁻¹ s⁻¹
- Km [9]: 200 µM
- kcat [9]: 0.112 s⁻¹
- kcat/Km [9]: 567 M⁻¹ s⁻¹
